US20140206628A1

Experiments:
Conditions in all cases: remark: other sources report otherwise
A/USSR/90/77 (H1N1) = molecular target: A/USSR/90/77 (H1N1)
[1] = molecular target: A/Solomon Islands/3/06 (H1N1)
A/AA/Marton/43 (H1N1) = molecular target: A/AA/Marton/43 (H1N1)
A/Beijing/262/95 (H1N1) = molecular target: A/Beijing/262/95 (H1N1)

B1: HB80.3 ([change], [change], [change], [change], Delta54-95) (designed binder)
chain: MASTRGSGRPWGFSENLAFELALSFTNKDTPDRWAKVAQYVSGRTPEEVKKHYE
A/USSR/90/77 (H1N1)
  Kd: 10 nM
[1]
  Kd: 100 nM
A/AA/Marton/43 (H1N1)
  Kd: 10 nM
A/Beijing/262/95 (H1N1)
  Kd: 10 nM
